One assay concerns the target T1, human ADAMTS5 (Homo sapiens, UniProt Q9UNA0).
T1 sequence (Q9UNA0 262-930): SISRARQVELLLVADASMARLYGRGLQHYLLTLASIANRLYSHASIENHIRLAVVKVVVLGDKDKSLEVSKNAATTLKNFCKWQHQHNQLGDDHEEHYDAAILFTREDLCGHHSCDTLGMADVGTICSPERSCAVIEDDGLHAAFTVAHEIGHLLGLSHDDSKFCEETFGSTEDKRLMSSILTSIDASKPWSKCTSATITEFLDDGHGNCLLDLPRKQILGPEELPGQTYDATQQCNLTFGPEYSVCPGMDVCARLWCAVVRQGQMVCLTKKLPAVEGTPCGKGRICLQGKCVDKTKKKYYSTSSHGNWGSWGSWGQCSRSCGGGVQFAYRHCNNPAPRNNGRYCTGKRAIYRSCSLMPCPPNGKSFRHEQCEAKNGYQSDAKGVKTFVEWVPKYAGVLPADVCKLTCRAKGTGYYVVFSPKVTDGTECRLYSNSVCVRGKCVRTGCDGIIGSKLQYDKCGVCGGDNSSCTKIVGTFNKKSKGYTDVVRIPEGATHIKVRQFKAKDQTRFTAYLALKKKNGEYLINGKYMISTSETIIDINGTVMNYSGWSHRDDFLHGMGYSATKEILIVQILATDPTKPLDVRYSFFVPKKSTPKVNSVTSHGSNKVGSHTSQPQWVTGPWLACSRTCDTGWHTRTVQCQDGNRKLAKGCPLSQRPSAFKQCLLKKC
In words: SPR-based off-rate analysis, human ADAMTS5. The format is binding. As to the method: (§1) Species cross-reactivity was initially evaluated via SPR-based off-rate analysis on a Biacore T100 instrument. Polypeptides were tested for binding to human, cynomolgus monkey (“cyno”), guinea pig, mouse, and bovine ADAMTS5. To this end, recombinant ADAMTS5 was immobilized onto a CM5 chip via amine coupling using EDC and NHS. Purified ISVD 02F03 was injected for 2 minutes at a concentration of 100 nM and allowed to dissociate for 15 min at a flow rate of 45 μl/min. Off-rate for each individual ADAMTS5 was determined by fitting a 1:1 interaction model (Langmuir model) onto the individual dissociation curves using the BIA Evaluation software. As a reference, off-rates on human ADAMTS5 were determined in each experiment.

For another assay, the target named is T2, guinea pig ADAMTS5 (Cavia porcellus, UniProt H0VFP0).
T2 sequence (H0VFP0 21-906): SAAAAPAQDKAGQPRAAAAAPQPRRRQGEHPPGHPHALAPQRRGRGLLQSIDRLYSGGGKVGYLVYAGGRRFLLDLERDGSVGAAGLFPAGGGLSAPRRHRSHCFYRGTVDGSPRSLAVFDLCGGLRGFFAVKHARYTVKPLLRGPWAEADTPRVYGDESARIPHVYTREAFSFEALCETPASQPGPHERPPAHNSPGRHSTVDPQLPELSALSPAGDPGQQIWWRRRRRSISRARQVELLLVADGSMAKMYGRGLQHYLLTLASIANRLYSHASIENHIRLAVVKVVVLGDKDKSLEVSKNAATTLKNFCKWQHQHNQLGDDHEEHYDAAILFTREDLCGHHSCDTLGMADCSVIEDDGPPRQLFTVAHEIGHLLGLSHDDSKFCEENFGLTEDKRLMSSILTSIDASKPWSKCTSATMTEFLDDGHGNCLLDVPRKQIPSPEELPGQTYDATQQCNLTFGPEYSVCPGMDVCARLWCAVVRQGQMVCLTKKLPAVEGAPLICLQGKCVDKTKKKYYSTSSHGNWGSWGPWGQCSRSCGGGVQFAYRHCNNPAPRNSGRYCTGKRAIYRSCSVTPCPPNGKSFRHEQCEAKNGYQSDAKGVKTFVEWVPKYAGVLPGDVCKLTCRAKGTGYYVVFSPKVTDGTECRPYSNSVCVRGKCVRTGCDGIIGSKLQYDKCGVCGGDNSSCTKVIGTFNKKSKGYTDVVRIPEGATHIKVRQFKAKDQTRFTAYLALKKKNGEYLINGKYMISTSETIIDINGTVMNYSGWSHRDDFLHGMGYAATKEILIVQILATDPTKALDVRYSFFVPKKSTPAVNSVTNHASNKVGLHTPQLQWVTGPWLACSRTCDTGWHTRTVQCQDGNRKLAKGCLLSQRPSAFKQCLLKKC
In words: SPR-based off-rate analysis, guinea pig ADAMTS5. As to conditions: Experiment 1. The class given is binding. The method, then:
as §1

The next assay has as its system bovine ADAMTS5. Kind of assay: SPR-based off-rate analysis, bovine ADAMTS5. The format is binding. As to conditions: Experiment 3. The method, then: as §1
The next assay deals with T3, human MMP1 (Homo sapiens, UniProt P03956).
T3 sequence (P03956 100-469): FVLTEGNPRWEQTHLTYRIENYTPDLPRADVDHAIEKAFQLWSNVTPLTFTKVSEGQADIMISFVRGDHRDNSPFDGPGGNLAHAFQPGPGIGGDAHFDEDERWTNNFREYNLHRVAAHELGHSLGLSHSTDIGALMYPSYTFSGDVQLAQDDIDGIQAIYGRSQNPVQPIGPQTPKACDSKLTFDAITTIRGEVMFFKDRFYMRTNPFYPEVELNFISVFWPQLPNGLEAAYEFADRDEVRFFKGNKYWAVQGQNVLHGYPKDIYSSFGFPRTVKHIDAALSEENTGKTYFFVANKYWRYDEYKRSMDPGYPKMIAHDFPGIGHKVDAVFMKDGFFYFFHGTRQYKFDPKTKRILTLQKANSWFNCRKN
In words: FRET-based human MMP1 assay (selectivity of 02F03). The note with it: data not shown. The class given is biochemical. As to the method: To confirm the selectivity of ISVD 02F03 for ADAMTS5, inhibition of the enzymatic activity of MMP1, MMP14 and ADAMTS4 was evaluated via FRET-based assays and a human ADAMTS4 AlphaLISA, with the respective enzymes.
Activated human MMP1 or MMP14 was incubated for 30 minutes at room temperature with 10 μl of dilution series of ISVD 02F03. After incubation, 20 μl of respectively 5 μM or 2.5 μM fluorogenic peptide substrate (Mca-PLGL-Dpa-AR-NH2 Fluorogenic MMP Substrate (R&D Systems cat #ES001)) was added. The ability of ISVD 02F03 to prevent MMP1- and MMP14-mediated cleavage was monitored every minute for 2 hours at 37° C. on a Tecan Infinite M1000 plate reader.

B1: ISVD 02F03: immunoglobulin single variable domain which specifically binds ADAMTS5 (protein)
VHH: EVQLVESGGGVVQPGGSLRLSCAASGRTVSSYAMGWFRQAPGKEREFVAGISRSAERTYYVDSLKGRFTISRDNSKNTVYLQMNSLRPEDTALYYCAADLDPNRIFSREEYAYWGQGTLVTVSS
modifications: Description of Artificial Sequence: Synthetic anti-ADAMTS5 immunoglobulin single variable domain (ISVD)
Regarding B1, the “SPR based off-rate, kd, Human ADAMTS-5” value with human ADAMTS5 (Experiment 1) is 3.3e-05 s⁻¹; in the assay with human ADAMTS5 (Experiment 2) it was 6.5e-05 s⁻¹; with human ADAMTS5 (Experiment 3), 9.7e-05 s⁻¹. Moreover, in the assay with guinea pig ADAMTS5, the “SPR based off-rate, kd, Guinea pig ADAMTS-5” value is 3.4e-05 s⁻¹. The “SPR based off-rate, kd, Bovine ADAMTS-5” value with bovine ADAMTS5 is 4.3e-05 s⁻¹. In the assay with human MMP1, the “inhibition of MMP1 activity” value is “did not show any inhibition”.

The record behind these values is patent US20240181006A1, “POLYPEPTIDES BINDING ADAMTS5, MMP13 AND AGGRECAN” (Merck Patent GmbH, priority 2017, published 2024).
